Test results as given in PMC6668441, “Comparative Study of Subcutaneous and Orthotopic Mouse Models of Prostate Cancer: Vascular Perfusion, Vasculature Density, Hypoxic Burden and BB2r-Targeting Efficacy” (Scientific Reports, 2019).

Experiments:
[1] = Biodistribution, BB2r-targeted uptake, subcutaneous PC-3 xenograft model; conditions: female, NOD SCID, mouse, iv, total radioactivity, 1 h 5 min p.i., mean ± SD; for dose excreted at 65 min: urine and faeces, excretion (urine and fecal material)
physchem = type: physicochemical; conditions: pH 7.4
Experimental: (§1) Peptide synthesis was performed using an automated solid-phase peptide synthesizer employing traditional Fmoc chemistry and using a Rink Amide resin. Briefly, the resin (100 µmol of the resin substituted peptide anchors) was deprotected using piperidine, resulting in the formation of a primary amine from which the C-terminus of the growing peptide was anchored.
The Fmoc protected amino acids (300 µmol) with appropriate orthogonal protection were activated with HBTU and sequentially added to the resin. The resulting peptide was orthogonally deprotected and cleaved from the resin using a cocktail consisting of triisopropyl silane (0.1 mL), water (0.1 mL), 3,6-dioxa-1,8-octanedithiol (0.1 mL), trifluoroacetic acid (4.625 mL) and thioanisole (0.075 mL), respectively. The cleaved peptide was subsequently precipitated and washed using cold (0 °C) methyl-tert-butyl ether (10 mL×3). The crude conjugate was dried by a centrivap concentrator and weighed. ES-MS was used to determine the molecular mass of the prepared peptides. All conjugate were peak purified to • 95% purity and quantified by RP-HPLC prior to in vitro/in vivo investigations.
HPLC Purification and Analysis Methodology […]
(§2) The partition coefficient was determined for the 177Lu-labeled conjugate. […] Aliquots of 100 µL were taken from each layer and the radioactivity of each was quantified by a Ȗ-counter. […]

[2] = Radiochemical stability in stabilizing buffers (RP-HPLC); type: physicochemical; conditions: PBS, 0.37 MBq in 1 mL, 4 °C, 72 h
Experimental: Briefly, 0.37 MBq of radiolabeled compounds were incubated with 1 mL of: A) PBS; B) ascorbic acid in 0.9% sodium chloride solution (40 mg/ml); and C) Selenomethionine (0.2 mg/ml) and ascorbic acid (40 mg/ml) in 0.9% sodium chloride solution at 4 °C for 24, 48 and 72 h. The stability of the radioconjugate at each time point was calculated based on the integration of the RP-HPLC chromatograms.
as §1
The Fmoc protected amino acids (300 µmol) with appropriate orthogonal protection were activated with HBTU and sequentially added to the resin. […] All conjugate were peak purified to • 95% purity and quantified by RP-HPLC prior to in vitro/in vivo investigations. […]
as §2

## CSCC[C@H](NC(=O)[C@H](CC(C)C)NC(=O)[C@H](Cc1c[nH]cn1)NC(=O)CNC(=O)[C@@H](NC(=O)[C@H](C)NC(=O)[C@H](Cc1c[nH]c2ccccc12)NC(=O)[C@H](CCC(N)=O)NC(=O)CCOCCOCCOCCOCCNC(=O)[C@@H](CO)NC(=O)[C@@H](CO)NC(=O)[C@@H](CO)NC(=O)[C@@H](CO)NC(=O)[C@@H](CO)NC(=O)CN1CCN(CC(=O)O)CCN(CC(=O)O)CCN(CC(=O)O)CC1)C(C)C)C(N)=O [[^177Lu]Lu-DOTA-SP714, metal not drawn]
[1]; blood, 10 uCi, blood uptake, tumor volume 300-700 mm^3, 10 µCi i.v.
  tissue uptake at 65 min: 0.78 ± 0.81 %ID/g
[1]; blood, 10 uCi, blood uptake, tumor volume <300 mm^3, 10 µCi i.v.
  tissue uptake at 65 min: 0.49 ± 0.4 %ID/g
[1]; blood, 10 uCi, blood uptake, tumor volume >700 mm^3, 10 µCi i.v.
  tissue uptake at 65 min: 2.27 ± 0.6 %ID/g
[1]; bone, 10 uCi, bone uptake, tumor volume 300-700 mm^3, 10 µCi i.v.
  tissue uptake at 65 min: 0.26 ± 0.19 %ID/g
[1]; bone, 10 uCi, bone uptake, tumor volume <300 mm^3, 10 µCi i.v.
  tissue uptake at 65 min: 0.2 ± 0.12 %ID/g
[1]; bone, 10 uCi, bone uptake, tumor volume >700 mm^3, 10 µCi i.v.
  tissue uptake at 65 min: 0.67 ± 0.07 %ID/g
[1]; brain, 10 uCi, brain uptake, tumor volume 300-700 mm^3, 10 µCi i.v.
  tissue uptake at 65 min: 0.03 ± 0.01 %ID/g
[1]; brain, 10 uCi, brain uptake, tumor volume <300 mm^3, 10 µCi i.v.
  tissue uptake at 65 min: 0.03 ± 0.02 %ID/g
[1]; brain, 10 uCi, brain uptake, tumor volume >700 mm^3, 10 µCi i.v.
  tissue uptake at 65 min: 0.09 ± 0.05 %ID/g
[1]; heart, 10 uCi (370 kBq), heart uptake, tumor volume 300-700 mm^3, 10 µCi i.v.
  tissue uptake at 65 min: 0.16 ± 0.03 %ID/g
[1]; heart, 10 uCi (370 kBq), heart uptake, tumor volume >700 mm^3, 10 µCi i.v.
  tissue uptake at 65 min: 0.68 ± 0.48 %ID/g
[1]; heart, 10 uCi, heart uptake, tumor volume <300 mm^3, 10 µCi i.v.
  tissue uptake at 65 min: 0.16 ± 0.05 %ID/g
[1]; kidney, 10 uCi, kidney uptake, tumor volume 300-700 mm^3, 10 µCi i.v.
  tissue uptake at 65 min: 2.59 ± 1.02 %ID/g
[1]; kidney, 10 uCi, kidney uptake, tumor volume <300 mm^3, 10 µCi i.v.
  tissue uptake at 65 min: 2.75 ± 1.29 %ID/g
[1]; kidney, 10 uCi, kidney uptake, tumor volume >700 mm^3, 10 µCi i.v.
  tissue uptake at 65 min: 6.64 ± 2.83 %ID/g
[1]; large intestine, 10 uCi, large intestine uptake, tumor volume 300-700 mm^3, 10 µCi i.v.
  tissue uptake at 65 min: 2.63 ± 2.12 %ID/g
[1]; large intestine, 10 uCi, large intestine uptake, tumor volume <300 mm^3, 10 µCi i.v.
  tissue uptake at 65 min: 1.38 ± 0.75 %ID/g
[1]; large intestine, 10 uCi, large intestine uptake, tumor volume >700 mm^3, 10 µCi i.v.
  tissue uptake at 65 min: 3.75 ± 2.89 %ID/g
[1]; liver, 10 uCi, liver uptake, tumor volume 300-700 mm^3, 10 µCi i.v.
  tissue uptake at 65 min: 0.31 ± 0.06 %ID/g
[1]; liver, 10 uCi, liver uptake, tumor volume <300 mm^3, 10 µCi i.v.
  tissue uptake at 65 min: 0.29 ± 0.12 %ID/g
[1]; liver, 10 uCi, liver uptake, tumor volume >700 mm^3, 10 µCi i.v.
  tissue uptake at 65 min: 0.9 ± 0.49 %ID/g
[1]; lung, 10 uCi (370 kBq), lung uptake, tumor volume 300-700 mm^3, 10 µCi i.v.
  tissue uptake at 65 min: 0.64 ± 0.39 %ID/g
[1]; lung, 10 uCi (370 kBq), lung uptake, tumor volume <300 mm^3, 10 µCi i.v.
  tissue uptake at 65 min: 1.08 ± 1.55 %ID/g
[1]; lung, 10 uCi, lung uptake, tumor volume >700 mm^3, 10 µCi i.v.
  tissue uptake at 65 min: 1.39 ± 0.67 %ID/g
[1]; muscle, 10 uCi, muscle uptake, tumor volume 300-700 mm^3, 10 µCi i.v.
  tissue uptake at 65 min: 0.15 ± 0.07 %ID/g
[1]; muscle, 10 uCi, muscle uptake, tumor volume <300 mm^3, 10 µCi i.v.
  tissue uptake at 65 min: 0.17 ± 0.12 %ID/g
[1]; muscle, 10 uCi, muscle uptake, tumor volume >700 mm^3, 10 µCi i.v.
  tissue uptake at 65 min: 0.46 ± 0.24 %ID/g
[1]; pancreas, 10 uCi, pancreas uptake, tumor volume 300-700 mm^3, 10 µCi i.v.
  tissue uptake at 65 min: 23.8 ± 8.43 %ID/g
[1]; pancreas, 10 uCi, pancreas uptake, tumor volume <300 mm^3, 10 µCi i.v.
  tissue uptake at 65 min: 19.4 ± 13 %ID/g
[1]; pancreas, 10 uCi, pancreas uptake, tumor volume >700 mm^3, 10 µCi i.v.
  tissue uptake at 65 min: 22.6 ± 7.83 %ID/g
[1]; small intestine, 10 uCi, small intestine uptake, tumor volume 300-700 mm^3, 10 µCi i.v.
  tissue uptake at 65 min: 2.82 ± 1.14 %ID/g
[1]; small intestine, 10 uCi, small intestine uptake, tumor volume <300 mm^3, 10 µCi i.v.
  tissue uptake at 65 min: 2.53 ± 1.39 %ID/g
[1]; small intestine, 10 uCi, small intestine uptake, tumor volume >700 mm^3, 10 µCi i.v.
  tissue uptake at 65 min: 4.21 ± 1.92 %ID/g
[1]; spleen, 10 uCi, spleen uptake, tumor volume 300-700 mm^3, 10 µCi i.v.
  tissue uptake at 65 min: 2.53 ± 1.31 %ID/g
[1]; spleen, 10 uCi, spleen uptake, tumor volume <300 mm^3, 10 µCi i.v.
  tissue uptake at 65 min: 1.46 ± 1.32 %ID/g
[1]; spleen, 10 uCi, spleen uptake, tumor volume >700 mm^3, 10 µCi i.v.
  tissue uptake at 65 min: 3.02 ± 0.63 %ID/g
[1]; stomach, 10 uCi, stomach uptake, tumor volume 300-700 mm^3, 10 µCi i.v.
  tissue uptake at 65 min: 1.68 ± 0.85 %ID/g
[1]; stomach, 10 uCi, stomach uptake, tumor volume <300 mm^3, 10 µCi i.v.
  tissue uptake at 65 min: 0.94 ± 0.53 %ID/g
[1]; stomach, 10 uCi, stomach uptake, tumor volume >700 mm^3, 10 µCi i.v.
  tissue uptake at 65 min: 4.89 ± 3.52 %ID/g
[1]; tumor, 10 uCi, tumor uptake, tumor volume 300-700 mm^3, 10 µCi i.v.
  tissue uptake at 65 min: 5.35 ± 1.75 %ID/g
[1]; tumor, 10 uCi, tumor uptake, tumor volume <300 mm^3, 10 µCi i.v.
  tissue uptake at 65 min: 4.16 ± 1.74 %ID/g
[1]; tumor, 10 uCi, tumor uptake, tumor volume >700 mm^3, 10 µCi i.v.
  tissue uptake at 65 min: 9.44 ± 3.66 %ID/g
[1]; 10 uCi, tumor volume 300-700 mm^3, 10 µCi i.v.
  dose excreted at 65 min: 73.2 ± 7%
[1]; 10 uCi, tumor volume <300 mm^3, 10 µCi i.v.
  dose excreted at 65 min: 68.5 ± 23.4%
[1]; 10 uCi, tumor volume >700 mm^3, 10 µCi i.v.
  dose excreted at 65 min: 59 ± 12.4%
physchem
  logD: -2.2 ± 0.1
[2]
  radiolytic degradation: 39.9%
